US20260116991A1 (HAINAN SIMCERE ZAIMING PHARMACEUTICAL, published 2026)

Tests used:
monkey GPC3-His protein [1] = biological target: T1, monkey GPC3-His protein (monkey); experiment: ELISA, monkey GPC3-His coated;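 also: Plate-coated antigen at 1 µg/mL, antibody binding 2 h at 37 °C, detected with HRP-labeled secondary antibody and TMB, absorbance at 450 nm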
T1 construct: Bought recombinant protein; also called monkey GPC3 protein

[2] = biological target: T2, monkey GPC3 on HEK293T-monkey GPC3 cells (monkey); experiment: FACS on HEK293T-monkey GPC3 cells;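 also: flow cytometry binding of test antibodies to the cells, read as mean fluorescence intensity, with half-maximal concentration taken from fitted curves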
T2 construct: whole, on cells
Method: The desired cells were expanded to a logarithmic growth phase in a T-75 cell culture flask, the medium was removed by pipetting, and the cells were washed twice with a PBS buffer, and digested with trypsin. Then a complete medium was added to stop the digestion, and the cells were blown into a single cell suspension. After counting, the cells were centrifuged, and the cell pellet was resuspended with an FACS buffer (PBS+2% fetal bovine serum) to 2×10⁶ cells/mL. The cell resuspension solution was added to a 96-well FACS reaction plate at 50 μl/well, and a chimeric antibody sample to be tested was added at 50 μl/well for incubation at 4° C. for 1 h. […] After the plate was centrifuged and washed 3 times with a PBS buffer, 100 μl of the resulting solution was assayed and analyzed by FACS (FACS Canto™, purchased from BD Biosciences). Data analysis was performed by software (FlowJo) to obtain the mean fluorescence intensity (MFI) of the cells. Then, analysis was performed by software (GraphPad Prism8), data were fitted, and EC₅₀ values were calculated.

human GPC3-His protein = biological target: T3, human GPC3-His protein (human, UniProt P51654 25-559); experiment: SPR, antibody captured on Protein A chip, human GPC3-His analyte;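 also: measured at 25 °C flow cell, human GPC3-His injected at five concentrations up to 200 nM, 240 s association, up to 600 s dissociation, double-referenced, fitted to Langmuir 1:1 model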
T3 construct: also called human GPC3 protein; not shown: His tag

monkey GPC3-His protein [3] = biological target: T1, monkey GPC3-His protein; experiment: SPR, antibody captured on Protein A chip, monkey GPC3-His analyte;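 also: run at 25 °C with 240 s association and up to 600 s dissociation, double-referenced, kinetics fitted to a 1:1 Langmuir binding model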
Method: The flow cell was set at 25° C. The sample block was set at 16° C. Both were pretreated with the running buffer. In each cycle, first, the antibody to be tested was captured using the Protein A chip, and then a single concentration of GPC3 antigen protein was injected. […] The association was determined by injecting different concentrations of human GPC3-His in the solution and maintaining for 240 s, wherein the flow rate was 30 μL/min, and the protein was diluted at a 1:1 dilution ratio from 200 nM to obtain 5 concentrations in total. The dissociation phase was monitored for up to 600 s and triggered by switching from the sample solution to the running buffer. The surface was regenerated by washing with 10 mM glycine solution (pH 1.5) at a flow rate of 30 μL/min for 30 s. The difference in bulk refractive index was corrected by subtracting the responses obtained from the goat anti-human Fc surface. Blank injections (double reference) were also subtracted. To calculate the apparent KD and other kinetic parameters, the Langmuir 1:1 model was used.

Binder	OD450 at 0.0001 nM (monkey GPC3-His protein [1]) [OD450]	OD450 at 0.001 nM (monkey GPC3-His protein [1]) [OD450]	OD450 at 0.01 nM (monkey GPC3-His protein [1]) [OD450]	OD450 at 0.1 nM (monkey GPC3-His protein [1]) [OD450]	OD450 at 1 nM (monkey GPC3-His protein [1]) [OD450]	OD450 at 10 nM (monkey GPC3-His protein [1]) [OD450]	OD450 at 100 nM (monkey GPC3-His protein [1]) [OD450]	EC50 [2] [nM]	Max MFI [2] [MFI]	Kd (human GPC3-His protein) [nM]	koff (human GPC3-His protein) [s⁻¹]	kon (human GPC3-His protein) [M⁻¹ s⁻¹]	Kd (monkey GPC3-His protein [3]) [nM]	koff (monkey GPC3-His protein [3]) [s⁻¹]	kon (monkey GPC3-His protein [3]) [M⁻¹ s⁻¹]
F1.41.17 (antibody, human IgG1, kappa, V domains shown, Human-murine chimeric antibody) VH: EVQLVESGGDSVKPGGSLKLSCAASGFTFSSYGMSWVRQTPDKRLEWVATINSGGSYTYYQDSVKGRFTISRDNAKNTLYLQMSSLKSEDTAIYYCVRHHYGSSYDYFDYWGQGTTLTVSS VL: DIVMTQAAPSVPVMPGESVSISCRSSKSLLHSNGNTHLYWFLQRPGQSPQLLIYRMSNLASGVPDRFSGSGSGTAFTLRISRVEAEDVGVYYCMQHLEYPLTFGAGTKLELKR	0.05	0.06	0.11	0.46	0.83	0.81	1.24	0.23	6210	7.91	0.0021	265000	4.42	0.00213	482000
F1.21.8 (antibody, human IgG1, kappa, V domains shown, Human-murine chimeric antibody) VH: EVQLQQSGPELVKPGASVKISCKTSGFLFTGHYMHWVKSSHGNILDWIGYIYPYNAISFYNQKFKGKATLTVDKSSNTAYMELRSLTSEDSAVYYCARGDYGNYVTAYWGQGTLVTVSA VL: DVLMTQTPLSLPVSLGDQASISCRSSQSIVHSSGNTYLEWYLQKPGQSPKLLIYKVSNRFSGVPDRFSGSGSGTDFTLKISRVEAEDLGVYYCFQGSHLPWTFGGGTKLDIKR	0.05	0.06	0.12	0.51	1	1.11	1.49	0.29	6320	0.271	6.91e-05	255000	0.1	4.65e-05	464000
F1.2.14 (antibody, human IgG1, kappa, V domains shown, Human-murine chimeric antibody) VH: RVQLQQSGAELVKPGASVRMSCKASGYTFTAYSIEWMKQNLGKSLEWIGNFRPYNDDTKYNENFKGRATLTVEKSSATVYLELSRLTSDDSAVYYCARSGPTDYFDYWGQGTTLIVSS VL: DIQMTQSPASLSASVGETVTITCRASDNIYSYLAWYQQKQGQSPQLLVYNAKTLAEGVPSRFSGSGSVTQFSLKIISLQPEDFGTYYCQHHFGTPRTFGGGTKLEIKR	0.05	0.05	0.07	0.27	0.86	1.03	1.55	1.1	4740	2.37	0.00017	71600	1.25	0.000156	125000
F1.57.21 (antibody, human IgG1, kappa, V domains shown, Human-murine chimeric antibody) VH: QVQLQQSGAELARPGASVKLSCKASGYTFTSYGISWVKQITGQGLEWIGEIYPRSESTYYNEKFKGKATLTADKSSSTAYMELRSLTSEDSAVYFCARDYGNIYSFAYWGQGTLVTVSA VL: DIQMTQSPASLSASVGETVTITCRTSENIYSYLAWYQQKQGKSPQLLVYNAKTLAEGVPSRFSGSGSGTQFSLKINSLQPEDFGSYYCQHHYGTPLTFGAGTKLELKR	0.05	0.06	0.14	0.77	1.68	2.15	2.3	0.77	5380	21.3	0.00278	131000	13	0.00306	236000
F1.78.24 (antibody, human IgG1, kappa, V domains shown, Human-murine chimeric antibody) VH: QVQLQQSGAELVKPGASVKMSCKASGYTFTTYPIEWMKQNHGKSLEWIGNFHPYNDDTNYNVKFKGKATLTVEKSSSTVYLELSRLTSDDSALYYCARRREYYGSFDVWGTGTTVTVSS VL: not shown	0.05	0.06	0.17	0.55	0.73	0.21	0.37	0.33	6580	7.06	0.00075	106000	3.26	0.000639	196000
